Measured values published in patent US20130183334A1.

Columns and labels:
Experiment in all cases: cell-based or functional assay
[1] = target: HIV-1 NL4-3 Gag with HIV-1/SIVmac239 p6 chimera 17-25 (HIV-1 (NL4-3); SIVmac239)
[2] = target: HIV-1 NL4-3 Gag with HIV-1/SIVmac239 p6 chimera 17-28 (HIV-1 (NL4-3); SIVmac239)
[3] = target: HIV-1 NL4-3 Gag with p6 point mutation F15A (HIV-1 (NL4-3)) (UniProt P12493)
[4] = target: HIV-1 NL4-3 Gag with HIV-1/SIVmac239 p6 chimera 17-38 (HIV-1 (NL4-3); SIVmac239)
[5] = target: HIV-1 NL4-3 Gag with HIV-1/SIVmac239 p6 chimera 17-23(b) (HIV-1 (NL4-3); SIVmac239)
[6] = target: HIV-1 NL4-3 Gag with HIV-1/SIVmac239 p6 chimera 17-48 (HIV-1 (NL4-3); SIVmac239)
[7] = target: HIV-1 NL4-3 Gag with HIV-1/SIVmac239 p6 chimera 17-24 (HIV-1 (NL4-3); SIVmac239)
[8] = target: HIV-1 NL4-3 Gag with HIV-1/SIVmac239 p6 chimera 17-27 (HIV-1 (NL4-3); SIVmac239)
[9] = target: HIV-1 NL4-3 Gag with HIV-1/SIVmac239 p6 chimera 17-26 (HIV-1 (NL4-3); SIVmac239)
[10] = target: HIV-1 NL4-3 Gag with p6 point mutation F17A (HIV-1 (NL4-3)) (UniProt P12493)

HIV-1 Vpr, myc-tagged (expression vector pcVpr.myc)
70: Vpr packaging into virions (immunoblot of pelleted virions) (% of wild-type) [2]
0.33: Vpr packaging into virions (immunoblot of pelleted virions) (fold of wild-type) [1] | Vpr packaging into virions (immunoblot of pelleted virions) (fold of wild-type) [4] | Vpr packaging into virions (immunoblot of pelleted virions) (fold of wild-type) [5] | Vpr packaging into virions (immunoblot of pelleted virions) (fold of wild-type) [6] | Vpr packaging into virions (immunoblot of pelleted virions) (fold of wild-type) [7] | Vpr packaging into virions (immunoblot of pelleted virions) (fold of wild-type) [8] | Vpr packaging into virions (immunoblot of pelleted virions) (fold of wild-type) [9]
80: Vpr packaging into virions (immunoblot of pelleted virions) (% decrease against wild-type) [3] | Vpr packaging into virions (immunoblot of pelleted virions) (% decrease against wild-type) [10]
